Experiments:
Test in all cases: ELISA
[1] = molecular target: SARS-CoV-2 BA.2 spike trimer variant (SARS-CoV-2 Omicron BA.2, UniProt P0DTC2 16-1213)
[2] = molecular target: SARS-CoV-2 B.1.1.529 spike trimer variant (SARS-CoV-2 B.1.1.529 (Omicron), UniProt P0DTC2 16-1213)
[3] = molecular target: SARS-CoV-2 Beta (B.1.351) variant prefusion stabilized spike trimer protein (UniProt P0DTC2 14-1213)

B1: 6-L8-A (antibody, V domains shown)
VH: EVQLQQSVAELVRPGASVKLSCTPSGFNIKNTYMHWMKQRPEQGLEWIGRINPANDDTKYAPKFQDKATITADTSSNTAYLQLSSLTSEDTAIYYCVYDVRWYFDVWGTGTTVTVSS
VL: DVVMTQTPLSLPVSLGDQASISCRSSQGLVHSNGNTYLHWYLQKPGQSPKLLIYKVSNRFSGVPDRFSGSGSGTDFTLKISRVEAEDLGVYFCSQSTHVPPTFGAGTKLELK
EC50 [1]: 20.6 nM | EC50 [2]: 64 nM

B2: 9-J11-A (antibody, V domains shown)
VH: QVQLQQSGAELVKPGASVKMSCMASGYTFTTYPIEWMKQIHGKSLEWIGNFHPYNDDSKYNEKFKGKATLSVEKSSSTVYLELSRSTSDDSAVYYCARGSYGPYWYFDVWGTGTTVTVSS
VL: DIQMTQSPASLSASVGETVTITCRASGDIHNYLVWYQQKQGKSPQLLVYNAKALADGVPSRFSGSGSGTQYSLKINSLQPDDFGSYYCQHFWSIPYTFGGGTKLEIK
EC50 [1]: 8.21 nM | EC50 [2]: 0.39 nM

B3: 6-C19-A (antibody, V domains shown)
VH: QIQLVQSGPELKKPGETVKISCKASGNTFTTAGMQWVQKMPGKGFKWIGWINTHSGEPKYAEDFKGRFAFSLETSASTAYLQISNLKNEDTATYFCARYGDYYYFDCWGQGTTLTVSS
VL: DIQMTQSPASLSASVGETVTITCRASGNIHNYLAWYQQKQGKSPQLLVYNAKTLADGVPSRFSGSGSGTQYSLKINSLQPEDFGSFYCQHFWTTPWSFGGGTKLEIK
EC50 [3]: 1.53 nM

B4: 4-A22-A (antibody, V domains shown)
VH: EVQLQQSGPELVKPGASVKMSCKASGYTFTSYVMHWVKQKPGQGLEWIGYINPYNDGTEYNEKFKGKATLTSDKSSSTAYMELSSLTSEDSAVYYCAREAYRYFDVWGTGTTVTVSS
VL: DIQMTQSPASLSVSVGETVTITCRASENIYSNLAWYQQKQGKSPQLLVYAATNLAEGVPSRFSGSGSGTQYSLKINSLQSEDFGSYYCQHFWGTPWTFGGGTKLEIK
EC50 [3]: 5.97 nM

B5: 9-P9-A (antibody, V domains shown)
VH: DVKLVESGEGLVKPGGSLKLSCAASGFSFSNFGMSWVRQTPEKRLEWVAYISSGGDYIYYADTVKGRFTISRDNARNTLYLQMSSLKSEDTAIYYCTRGYFDYWGQGTTLTVSS
VL: DVLMTQTPLSLPVSLGDQASISCRSSQSIVHSNGNTYLEWYLQKPGQSPKLLIYTVSNRFSGVPDRFSGSGSGTDFTLKISRVEAEDLGVYYCFQGSHVPYTFGGGTKLEMR
EC50 [1]: 0.3 nM | EC50 [2]: 0.29 nM

B6: 2-P2-A (antibody, V domains shown)
VH: EVQLQQSGAELVRPGSSVKMSCKTSGYTFTSYGINWVKQRPGQGLEWIGYIYIGNGYTEYNEKFKGKATLTSDTSSSTAYMQLSSLTSEDSAIYFCARGGVDYWGQGTTLTVSS
VL: DVLMTQTPLSLPVSLGDQASISCRSSQSIVHSNGNTYLEWYLQKPGQSPKLLIYKVSNRFSGVPDRFSGSGSGTDFTLKISRVEAEDLGVYYCFQGSHVPYTFGGGTKLEIK
EC50 [1]: 0.5 nM | EC50 [2]: 0.58 nM

B7: 10-J24-A (antibody, V domains shown)
VH: EVQLVESGGGLVKPGGSLKLSCAASGFTFSSYAMSWVRQNPAKRLEWVATISGGGGFTYYPDSVKGRFTISRDNAKNTLYLQMNSLRSEDTAMYYCARDEDGKHDYFDYWGQGTTLTVSS
VL: DIVMTQSHKFMSTSVGDRVSITCKASQDVGTAVAWYQQKPGQSPKLLIYWASTRHTGVPDRFTGSGSGTDFTLTISNVQSEDLADYFCQQYASYPLTFGGGTKLVIK
EC50 [3]: 1.47 nM

B8: 2-O15-A (antibody, V domains shown)
VH: QVQLQQSGAELVRPGASVKLSCKASGYTFTDCEMHWVKQTPVHGLEWIGVIDPETGDTAYNQKFKGKATLTADKSSSTAYMELRSLTSEDSAVYYCTRRRDYGNPYWYFDVWGAGTTVTVSS
VL: EIVLTQSPALMAASPGEKVTITCSVSSSISSSNLHWYQQKSGTSPKPWIYGTSNLASGVPVRFSGSGSGTSYSLTISSMEAEDAATYYCQQWTSYPYTFGSGTKLEIK
EC50 [3]: 0.59 nM

B9: 4-C3-A (antibody, V domains shown)
VH: EVQLQQSGPELVKPGASVKISCKASGYSFTGYYMHWVKQSHGNILDWIGYIYPYNGVSSYNQKFKGKATLTVDKSSSTAYMELRSLTSEASAVYYCARAYGSSYDYYYGLDYWGQGTSVTVSS
VL: DIVLTQSPASLAVSLGQRATISCKASQSVDYDGAGYMNWYQQKPGQPPKLLISSASNLQSGIPARFSGSGSGTDFTLNIHPVEEEDAATYYCQQSNDDPYTFGGGTKLEIK
EC50 [1]: 3.07 nM | EC50 [2]: 0.71 nM

B10: 9-L13-A (antibody, V domains shown)
VH: QVQLKESGPGLVAPSQSLSITCTVSGFSLTSYAISWVRQPPGKGLEWLGLIWTGGGTNYNSALKSRLSISKDNSKSQIFLKMNSLQTDDTARYYCARGPPLIYYGDLYYFDYWGQGTTLTVSS
VL: DIQMTQSPSSLSASLGGKVTITCKASQDINKYIAWYQHKPGKGPRLLIHYTSTLQPGIPSRFSGSGSGRDYSFSISNLEPEDIATYYCLQYDNLWTFGGGTKLEIK
EC50 [1]: 12 nM | EC50 [2]: 10.9 nM

B11: 5-H22-A (antibody, V domains shown)
VH: QVQLQQSGAELVRPGASVTLSCKASGYTFTDYEMHWMKQTPVHGLEWIGAIDLETGGTVYNQKFKGKAILTADKSSNTAYMALRSLTSEDSAVYYCTREFPHYYGSRYGFPYWGQGTLVTVSA
VL: QIVLTQSPAIMSASPGEKVTITCSASSSVSYMHWLQQKPGTSPKLWIYSTSNLASGVPARFSGSGSGTSYSLTISRMEAEDAATYYCQQRSSYPYTFGGGTKLEIK
EC50 [2]: 1.26 nM

B12: 4-K16-A (antibody, V domains shown)
VH: QIQLVQSGPELKKPGETVKISCKASGYTFTTYGMSWVKQAPGKGLKWMGWMSTYSGVPTYADDFKGRFAFSLETSASTAYLQINNLKNEDTATYFCASGDVGYWGQGTTLTVSS
VL: DIVMTQSQKFMSTSVGDRVSVTCKASQNVGTNVAWYQQKPGQSPKALIYSASYRYSGVPDRFTGSGSGTDFTLTISTVQSEDLAEYFCQQYNIYPSTFGGGTKLEIK
EC50 [1]: 3.87 nM | EC50 [2]: 0.94 nM

B13: 8-N24-A (antibody, V domains shown)
VH: QVQLQQPGAELVKPGASVKVSCKASGYTFTSYWMHWVKQRPGQGLEWIGRIHPSDSDTNYYQKFKGKATLSVDKSSSTAYMQLSSLTSEDSAVYYCAIPLYSYDNSGGYYPMDYWGQGTSVTVSS
VL: DIVMTQSQKFMSTSVGDRVTITCKASQNVRTAVAWYQQKPGQSPKKLIYLASNRHTGVPDRFTGSGSGTDFTLAISNVQSEDLADYFCLQHWNYPFTFGSGTRLEIK
EC50 [1]: 3.25 nM | EC50 [2]: 4.19 nM

B14: 10-B11-A (antibody, V domains shown)
VH: QVQLQQPGAELVKPGASVKVSCKASGYTFTSYWMHWVKQRPGQGLEWIGRIHPSDSDTNYYQKFKGKATLSVDKSSSTAYMQLSSLTSEDSAVYYCAIPLYSYDNSGGYYPMDYWGQGTSVTVSS
VL: DIVMTQSQKFMSTSVGDRVTITCKASQNVRTAVAWYQQKPGQSPKKLIYLASNRHTGVPDRFTGSGSGTDFTLAISNVQSEDLADYFCLQHWNYPFTFGSGTRLEIK
EC50 [1]: 0.84 nM | EC50 [2]: 1.16 nM

B15: 3-E13-A (antibody, V domains shown)
VH: EVQLQQSGPELVKPGASVKMSCKASGYTFTDYNIHWVKQSHGKSLEWIGYINPNNGGTDYNQKFQGKATLTVNKSSSTAYMELRSLTSEDFAVYYCARGGFYGNYGAYYGMDFWGQGTSVTVSS
VL: DIQMTQSPASLSASVGETVTITCRTSENIYSHLAWYQQTQGKSPQLLVYNAKTLAEGVPSRFSGSGSGTHFSLKINSLQPEDFGSYYCQHHYGIPPEFGGGTKLEIK
EC50 [1]: 0.35 nM | EC50 [2]: 0.35 nM

B16: 6-C19-A-WT (antibody, V domains shown)
VH: EVQLQQSGPELVKPGASVKMSCKASGYTFTDYNIHWVKQSHGKSLEWIGYINPNNGGTDYNQKFQGKATLTVDKSSSTAYMELRSLTSEDSAVYYCARGGFYGNYGSYYGMDFWGQGTSVTVSS
VL: DIQMTQSPASLSASVGETVTITCRTSENIYSHLAWYQQTQGKSPHLLVYNAKTLAEGVPSRFSGSGSGTQFSLKINSLQPEDFGSYFCQHHYGIPPEFGGGTKLEIK
EC50 [1]: 0.36 nM | EC50 [2]: 0.36 nM

B17: 2-J9-A (antibody, V domains shown)
VH: EVQLQQSGPELVKPGASVKMSCKASGYTFTDYNIHWVKQSHGKSLEWIGYINPNNGGTDYNQKFQGKATLTVNKSSSTAYMELRSLTSEDSAVYYCARGGFYGNYGAYYGMDFWGQGTSVTVSS
VL: DIQMTQSPASLSASVGETVTITCRTSENIYSHLAWYQQTQGKSPQLLVYNTKTLAEGVPSRFTGSGSGTQFSLKINSLQPEDFGSYYCQHHYGIPPEFGGGTKLEIK
EC50 [1]: 0.31 nM | EC50 [2]: 0.4 nM

B18: 9-M12-A (antibody, V domains shown)
VH: EVQLVESGGDLVKPGGSLKLSCTASGFTFSSYGMSWVRQTPDKRLEWVTTISSGGGYTYVPDSVKGRFTISRDNAKNTLYLHMSSLKSEDTAMYFCARPLIPTMVEAFDYWGQGTSLTVSS
VL: SIVMTQTPKFLPVSAGDRVTMTCKASQSVGNNVAWYQQKPGQSPKLLIYYASNRYTGVPDRFTGSGSGADFTFTISSVQVEDLAVYFCQQHYSSPFTFGTGTKLEIK
EC50 [3]: 0.47 nM

B19: 2-B20-A (antibody, V domains shown)
VH: QIQLVQSGPELKKPGETVKISCKASGYTFTTYGMSWVKQAPGKGLKWMGWINTFSGLPTYADDFNGRFAFSLETSASTAYLQINNLKDEDTATYFCARVKVHDYDGDFYGMDYWGQGTSVTVSS
VL: DVVLTQTPLSLPVNIGDQASISCKSTKSLLNSDGFTYLDWYLQKPGQSPQLLIYLVSNRFSGVPDRFSGSGSGTDFTLKISRVEAEDLGVYYCFQSNYLPLTFGAGTKLELK
EC50 [3]: 0.23 nM

B20: 10-I12-A (antibody, V domains shown)
VH: RVQLQQSGPELVRPGTSVKISCKASGYTFTDSYINWVTQRPGQGLDWIGWIFPGNDNTYYNEKFEGKATLTLDKSSSTAYMLLSSLTSEDSAVYFCARSGGLRLGFAYWGQGTLVTVSA
VL: NIVLTQSPASLAVSRGQRATISCRASESVDSYGHSFIHWYQQKPGQPPKILIYLASKLESGVPARFSGSGSRTDFTLTIDPVEADDAATYYCQQNNEDPWTFGGGTKLEIK
EC50 [1]: 81.1 nM
